The test deals with SeMet-labeled MtMce4A_(39–140) (Mycobacterium tuberculosis H37Rv). The test can be described thus: crystal structure; SeMet-labeled protein, 7.5 mg ml^−1; 100 mM MES, 700 mM ammonium sulfate pH 6.0, 22°C; space group P6_(5), 3.6 Å, SAD phasing.

In turn, “SeMet-labeled MtMce4A_(39–140) (domain or fragment)” showed a stoichiometry N of 2.
